Results as given in the DeepSol protein solubility set.

Assay: soluble on expression in E. coli; label from the status in PepcDB or PDB records

Sequence	soluble on expression in E. coli
MSLVKLKNLTLYLWAVFVVGCTSVPEVSTQAQNPANNKTVSLAELNWQELSLPADINFEFNEKSQVLLDNNSTGPVASFVIPTDRGPVDMVLTSHVGKELTLYEPNVLVTNSKGGVFYHIKSNEFKYIPARLLDGDRVQKQFTIVPQIGADQVNVLIYTTSEDLKGSTTVIHPAKAFAIGTGTQPPMIPDLTAVHSEYGQLNLTVTAVSLTNRTPIRPAIDYVPEIEAKSAYYLNSIQNSVEQGDIDHAMTLVSEAEKLGIPSARATFINAVQSRNEHKEGHHHHHH	soluble
MSLVPHHQPCPPASSLSAGPRGGVIMLILKNVTAVQLHPAKVQEGVDIAIENDVIVAIGDALTQRYPDASYKEMHGRIVMPGIVCSHNHFYSGLSRGIMANIAPSPDFISTLKNLWWRLDRALDEESLYYSGLICSLEAIKSGCTSVIDHHASPAYIGGSLSTLRDAFLKVGLRAMTCFETTDRNNGIKELQEGVEENIRFARQIDEAKKAATEPYLVEAHIGAHAPFTVPDAGLEMLREAVNATGRGLHIHAAEDLYDVSYSHHWYGKDLLARLAQFDLIDSKTLVAHGLYLSKDDIALLNQRDAFLVHNARSNMNNHVGYNHHLSDIRNLALGTDGIGSDMFEEMKFAFFKHRDAGGPLWPDSFAKALTNGNELMSRNFGAKFGLLEAGYKADLTICDYNSPTPLLADNIAGHIAFGMGSGSVHSVMVNGVMVYEDRQFNFDCDSIYAQARKAAASMWRRMDALAEGHHHHHH	soluble
MSLVQLYVSDSVSRISFADGRVIVWSEELGESQYPIETLDGITLFGRPTMTTPFIVEMLKRERDIQLFTTDGHYQGRISTPDVSYAPRLRQQVHRTDDPAFCLSLSKRIVSRKILNQQALIRAHTSGQDVAESIRTMKHSLAWVDRSGSLAELNGFEGNAAKAYFTALGHLVPQEFAFQGRSTRPPLDAFNSMVSLGYSLLYKNIIGAIERHSLNAYIGFLHQDSRGHATLASDLMEVWRAPIIDDTVLRLIADGVVDTRAFSKNSDTGAVFATREATRSIARAFGNRIARTATYIKGDPHRYTFQYALDLQLQSLVRVIEAEGHHHHHH	not soluble
MSLVRMRVGKFDYLNNFLPYYFLNEKVEIVEANPREMASMLLSGRIDYAPVPAFFYLKNRERLRHYEFCVASEGKVLSVVVVSRKKELDDGSIAVTPHSLTSVNLLKILLAERGMKNMLVEVNTAKASEMLELCPHALVIGDEAIKARMIYKVVMDLGEEWYELTSLPAVFGISASLKETNAEEMDRKILMATEEGYRRFDEVVRAAEKAFKMPREFLEEYFRTLKFRLSSKERRGLDEFEKYCRDYGLLEEGHHHHHH	not soluble
MSLVRQEPLRPDQPLEMGFEYRSAVRTVRTDSTGLIIPAPTARFSLNESPWRSCKGGMMAGMSSLVRIVNAGVPGSQDRVDVVLRDGVVASVGPAGTVSASDGTMQTKAHTTSLAYATNAIASGGVSIPTSASAPADETTIDADGLWVIPGLWDCHTHFTQWVKTLGRLDLINARSAAEAMDMLRRHLDERRAADTLDPDAFVVGMRFRHSLWADDEQPTLAAIDAVTGEQPVALSSADMHCGWVNSAAARRLGVHVDESGLVGELEWFNAYTAFDKAPGAAEETDRLLREAEQDAASKGVVGIRDYEMAENIDTWINRFAAGINGLRVDAGVYPERLRAAIDAGWHTGKELPGSAGLGHVGAMKLISDGSLNTRSAYCSTPYSGIEPLTYGTLSYTPQQIEDYMRLATEHGFDIACHAIGDEANTIALNAVAATHAHGSIEHAQMLKPVDIPRFAELGLTASIQPQHAMDDRDVITRFWANPAGIPYPFRALHDAGTTLRMGSDAPVAPLDPWLAISAAVLGTESSDREPFQPEQCLDVHTSLAASTATGRDRLASGDPADVVLLDADPYAADTPEAMRAMPQHVVMTLLCGERTYEGHHHHHH	not soluble
MSLVSIDLPIEGRLARYDLTGRPVPFNSRDAKAFSRVAFAAAHVVADPLADNDPWLAPAIDWERTLAFRHRLWDLGLGVAESMDTAQRGMGLGWPEARELIRRSLAEARGRPDALIACGAGTDHLAPGPDVSIDDILAAYESQIEAIEAEGGRIILMASRALAAAAKGPEDYIRVYDRVLSQVKEPVIIHWLGEMFDPALEGYWGNADHMAAMKTCLDVLEAHAAKVDGIKISLLSKEKEIVMRRQLPKGVRMYTGDDFNYAELIAGDEEGHSDALLGIFDAIAPVASAALEALGSGRNGEFFELLEPTVPLSRHIFKAPTRFYKTGVVFLAYLNGLQDHFVMIGGQQSARSLVHLAELFRLADKAGALADPELATARMRRVLAMHGVEEGHHHHHH	soluble
MSLVSTRLNDSQCLVQFSCNRFAKILLGQTLIWVNPSNTRKWGKSKKVNPQITSMEPLELLKKYVRDEKLIKHCIATAAVMKSLARELGEDEEKWWTIGILHDIDYEQTQGDMEKHGLVGAEILLKEGVEEEIAEVVKRHNHMLFGDYEKPVEIALQAADSVSGLVIACALVKGGKITEVTPKTVKKKFKEKSFAAGCDRDRIRMIEKLGMPLEKLYEVAIRGLTEVKDELGLS	not soluble
MSLVTVSDVKQYHFCKAIPWINYVMGYREPSTFSMEEGKKISYEEVVKSLNLTTPVKYEVCLSYNGLSGCIDILAGDRKYTVVEVKAFKRGNFSHFRYQLLAYAYLVRKRLGIVERAILVMEGKKVLEIEPTEEHYRYIENVVKKIEEIVNSEKLPAVNVEKCDFCQYRRICPVSVWSEGHHHHHH	soluble
MSLWKNTIHSISSNLSLKNPATKDELTDIQKCLHVELPNDLYQLLQETNGIEGEYGDFIWSASKIKTENMSMRNIVDFKDLYMPFDCLLFFADGGNGDLFGYSILNGKVQRDDIYVWNHENDSRTWVALSLKTFMEWWESGKITIEGHHHHHH	soluble
MSLWLQISNARIVCEDHLVEAGLAICDGLIDCFEQGGTSKAEAIDFDGDFLLPGLIDLHTDSVEHFMQPRPGVQWPSPLAAVLAHDWQLLGSGITTVLDALALGDYDSGGTRTAMLNDAIDGLTQARASGLLKTDHYFHFRCELSDPALLPIVERHVDNPGLRLISMMDHTPGQRQWHNLTLYREFRRKKNARVWNEEEFALHLAERREHQQQYVPPGRSTIGHLCRERDIRIASHDDTAAADVDESRGDGITISEFPTTVEAASRARELGMKIVMGSPNIILGGSHSGNVSALELADRGLLDVLTSDYVPGSLLHAAFALAAKGFDLPEAVAMVTKTPADLLGFSDRGRIAPGLRADLIRVRLVEGVPVIRNIWVAGRQYLEGHHHHHH	not soluble
MSMFGKVAADVLGLSDIGSVIQPKDYDKVDADDYVMHEDGEKIYFLIKSKSDEYCFTNRALIHLDGTSAASKKRTLRRYDYYKHPISDVSLETAGTVDLDAEIKFKIGPHSYSIDVHKKHIEELKDLYKSLLAIAEICHENEMKFHYAERSLELATKVFANMRGDGANVSADFQAVNEYAFRWLTEAKKNYTVKDFGFVFDKYIQQ	not soluble
MSNAIEINELHWLLAVTQNIDVGIVVLDLNYRVTVWNTFMENRSGVVPYVAIDKTFFELFPEVNRQWLSKKIDNVVTLGTPAFTIWEQRPYLVRFKNYQPITGHEEFMYQNTTLFPLRSTTGAISHVCLVIYDVTDVAANRN	not soluble
MSNAPLMPKATAVWLLDNTALTFDQVADFTKMHVLEVKAIADGDAAQGIKGMDPISTGQLTRDEIEKGEGDPDYRLKLAESKVVLPQAAKKKGPRYTPVSRRHERPSAILWLVRNHPELKDAQIMRLVGTTKTTIASVRDRTHWNAATLTPMDPVTLGLCSQLDLDFEVQRAAKEKPIDQQYGGATLLPASETTRKEAEFEAATSGKSQEDLDVDAVFAKLKTIGGKKHDDEDEDGGFLEHHHHHH	soluble
MSNDETVEKVTQQVSELKSTDVKEQVVTPWDVEGGVDEQGRAQNIDYDKLIKQFGTKPVNEETLKRFKQVTGREPHHFLRKGLFFSERDFTKILDLYEQGKPFFLYTGRGPSSDSMHLGHMIPFVFTKWLQEVFDVPLVIELTDDEKFLFKHKLTINDVKNFARENAKDIIAVGFDPKNTFIFSDLQYMGGAFYETVVRVSRQITGSTAKAVFGFNDSDCIGKFHFASIQIATAFPSSFPNVLGLPDKTPCLIPCAIDQDPYFRVCRDVADKLKYSKPALLHSRFFPALQGSTTKMSASDDTTAIFMTDTPKQIQKKINKYAFSGGQVSADLHRELGGNPDVDVAYQYLSFFKDDDVFLKECYDKYKSGELLSGEMKKLCIETLQEFVKAFQERRAQVDEETLDKFMVPHKLVWGEKERLVAPKPKTKQEKKHHHHHH	soluble
MSNKEYRPTLAQLRTFATIAENKHFGTAAAKLSISQPSLSQALAALENGLGVQLIERSTRRVIVTPAGEMLLPYAKATLDAADAFLAHAH	soluble
MSNLLGPRDANGIPVPMTVDESIASMKASLLKKIKRSAYVYRVDCGGCNGCEIEIFATLSPLFDAERFGIKVVPSPRHADILLFTGAVTRAMRSPALRAWQSAPDPKICISYGACGNSGGIFHDLYCVWGGTDKIVPVDVYIPGCPPTPAATLYGFAMALGLLEQKIHARGPGELDEQPAEILHGDMVQPLRVKVDREARRLAGYRYGRQIADDYLTQLGQGEEQVARWLEAENDPRLNEIVSHLNHVVEEARIRLEHHHHHH	not soluble
MSNQRSSLKHLNTFALPAYASNVISAGSVETLIAAWHESKAKRQPVLLLGEGSNVLFIKNFSGTVLLNRIMGITSTEDSAAWYLHVGAGENWHQLVCHSLQNNMPGLENLALIPGCVGSAPIQNIGAYGVELKQVCEYVDLLDMDKGTIQRISAEECQFGYRDSIFKHRYGNGFAIVSVGIKLMKSWTPTLGYGDLIHMDPLTVTATDIFNSVCTMRRSKLPDPMVTGNAGSFFKNPVVSAAIAEEIVHCYPNAPHYLQPDGSVKLAAGWLIDQCSLKGYQIGGAAVHQQQALVLINQSEATGQDVIHLARYIRQQVAQRFSIWLEPEVRFIADNGEVNAVEHLS	not soluble
MSNSTEPALAIITVTYSPGKHLGAFLSSVKEATAQPTYVVLADNGSVDGVPEAAAQADPSVEFFPTGGNIGYGSAINAAVRKLAPLRESGKINAEFFVLSNPDVVFEPGSIDAMVQCASRHPQAADIGPYIRQSDGSAYPSARQVPTIKNGVGHALFSSVWPSNPWSRAYRDNRDMTTERTAGWLSGSCLLVRWDAFEQIGGFDERYFMYMEDVDLGDRFGRAGFDNVFCPDAVITHAVGHAAGKHPEKMLPAHHDSAYRFQADRHPGLRYLPLRVLLRVGLKLRAVVAVAAAKFKLEHHHHHH	soluble
MSNWPYPHIVAHRGGGKLAPENTLAAIDVGARYGHTMIEFDAKLSKDGEIFLLHDDNLERTSNGWGVAGELNWQDLLRVDAGGWFSGEFKGEPLPLLSQVAERCRKHGMMANIEIKPTTGSGRLTGRVVALAARELWAGMTPPLLSSFEIEALEAAQAAAPELPRGLLLDKWREDWRELTTRLGCVSLHLNHKLLDETRVQEIKAAGLRILVYTVNQPQRAAELLRWGVDCICTDRIDDIGPHFQF	not soluble
MSNYTVKIKNSAKSDLKKIKHSYLKKSFLEIVETLKNDPYKITQSFEKLEPKYLERYSRRINHQHRVVYTVDDRNKEVLILSAWSHYD	not soluble
MSPAPSRPFSVLRANDVLWLSLTAAEYDQSTYGSSTGPVYVSDSVTLVNVATGAQAVARSLDWTKVTLDGRPLSTIQQHSKTFFVLPLRGKLSFWEAGTTKAGYPYNYNTTASDQLLVENAAGHRVAISTYTTSLGAGPVSISAVAVLA	soluble
